Measurements taken from patent US10925971B2, “Methods of treating PRLR positive breast cancer” (Regeneron Pharmaceuticals, Inc., priority 2016, dated 2021).

B1: H1H6960N: anti-PRLR antibody, human IgG1 Fc form of H2M6960N of Table 1; HCVR/LCVR SEQ ID NOs 322/330 (antibody, V domains shown)
VH: EVQLVESGGGLVKPGGSLRLSCAASGITFSSYSMNWVRQAPGKGLEWVSSISTRSSLIHYADSVKGRFTISRDNAKNSLYLQMNSLRDEDTAVYYCARWDAAAAFDYWGQGTLVIVSS
VL: DIQLTQSPSFLSASVGDRVTITCWASQGISSYLAWYQQKPGKAPKLLIYVASTLQSGVPSRFSGSGSGTEFTLTISSLQPEDFATYFCQQLNSYPLTFGGGTKVEIK
modifications: human IgG1 Fc
B2: H1H6959N2: anti-PRLR antibody, human IgG1 Fc form of H2M6959N2 of Table 1; HCVR/LCVR SEQ ID NOs 306/314 (antibody, V domains shown)
VH: EVQLVESGGGLVQPGRSLRLSCAASGFTFDDYAMHWVRQAPGKGLEWVSGISWHSGIIGYADSVKGRFTISRDNAKNSLYLQMNSLRTEDAALYYCAKIGSYFYFDSWGQGTLVTVSS
VL: EIVLTQSPGTLSLSPGERATLSCRASQSVSSNYLAWYQQKPGQAPRLLIYGASSRATGIPDRFSGSGSGTDFTLTISRLEPEDFAVYYCQQFGSSGYTFGQGTNLEIK
B3: H1H6966N: anti-PRLR antibody, human IgG1 Fc form of H2M6966N of Table 1; HCVR/LCVR SEQ ID NOs 338/346 (antibody, V domains shown)
VH: QVQLVQSGAEVQKPGASVKVSCKVSGYTLTALSIHWVRQAPGKGLEWMGNFDPGDGETIHAQKFQGRVTMTGDTSTDTAYMELSSLRSEDTAVYYCVGVTFDYWGQGTLVTVSS
VL: EIVMTQSPATLSVSPGERATLSCRASQSVASNLAWYQQKPGQAPRLLLYGASTRATGIPARFSGSGSGTEFTLTISSLQSEDFALYYCQHYNNWPLTFGGGTKVEIK
modifications: human IgG1 Fc
B4: H1H6967N: anti-PRLR antibody, human IgG1 Fc form of H2M6967N of Table 1; HCVR/LCVR SEQ ID NOs 354/362 (antibody, V domains shown)
VH: EVQLVESGGDLVHPGRSLRLSCAASGFPFDEYAMHWVRQVPGKGLEWVSGISWSNNNIGYADSVKGRFTISRDNAKNSLYLQMNSLRPEDTAFYYCAKSGIFDSWGQGTLVTVSS
VL: EIVMTQSPATLSVSPGERATLSCRASQSVSRDLAWYQQKPGQAPRLLIHGASTRATGIPARFSGSGSGAEFTLIISSLQSEDFAVYYCQQYNNWPLTFGGGTKVEIK
modifications: human IgG1 Fc

How the values were obtained:
[1] = target: T1, native PRLR expressing T47D cells (Homo sapiens, UniProt P16471); test: FACS cell surface binding
T1 construct: a native PRLR expressing cell line (T47D); endogenous in cells; host or cells: T47D
T1 sequence (P16471 25-622): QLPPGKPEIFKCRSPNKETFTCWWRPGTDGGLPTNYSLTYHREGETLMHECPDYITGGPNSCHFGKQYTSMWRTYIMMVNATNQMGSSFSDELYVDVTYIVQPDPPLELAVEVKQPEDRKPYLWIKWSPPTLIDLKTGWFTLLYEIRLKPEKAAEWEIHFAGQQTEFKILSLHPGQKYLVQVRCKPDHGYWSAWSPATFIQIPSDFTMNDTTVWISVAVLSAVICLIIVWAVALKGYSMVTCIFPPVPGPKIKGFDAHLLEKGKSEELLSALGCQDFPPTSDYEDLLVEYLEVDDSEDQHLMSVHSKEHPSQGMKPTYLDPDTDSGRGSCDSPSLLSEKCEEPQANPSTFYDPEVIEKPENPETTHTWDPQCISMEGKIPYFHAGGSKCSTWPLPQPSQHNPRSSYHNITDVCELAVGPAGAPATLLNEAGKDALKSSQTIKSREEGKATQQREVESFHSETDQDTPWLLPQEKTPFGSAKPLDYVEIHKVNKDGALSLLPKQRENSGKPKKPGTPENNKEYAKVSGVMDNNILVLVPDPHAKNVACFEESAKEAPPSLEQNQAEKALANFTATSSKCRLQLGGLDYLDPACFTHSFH
Experimental: (§1) Cell surface expression of PRLR on 293/hPRLR cells was assessed via FACS analysis. Briefly, 1×10^5 cells were incubated with 10 μg/ml of Control antibody I, or an isotype control for 30 min on ice in antibody dilution buffer. Following two washes with antibody dilution buffer, cells were incubated with 10 μg/ml of PE conjugated anti-human secondary antibodies for 30 min on ice. Following two additional washes, samples were run on a Hypercyt® cytometer and analyzed in ForeCyt™ (IntelliCyt, Albuquerque, N. Mex.). The mean fluorescence intensities (MFI) were expressed as fold change above isotype control levels (background). FACS binding confirmed that Control I selectively bound to 293/hPRLR expressing cells with MFIs that were 30 fold above background (isotype ctrl) levels and less than 2 fold binding on parental cells.
(§2) Next, the anti-PRLR antibodies were tested via FACS for selective binding to the engineered overexpressing PRLR HEK293 cell lines, as well as to non-expressing HEK293 cells and a native PRLR expressing cell line (T47D).

[2] = target: T2, mouse PRLR on HEK293/mPRLR cells (Mus musculus, UniProt Q08501); test: FACS cell surface binding
T2 construct: HA; expressed in transfected cells; host or cells: HEK293
T2 sequence (Q08501 20-608): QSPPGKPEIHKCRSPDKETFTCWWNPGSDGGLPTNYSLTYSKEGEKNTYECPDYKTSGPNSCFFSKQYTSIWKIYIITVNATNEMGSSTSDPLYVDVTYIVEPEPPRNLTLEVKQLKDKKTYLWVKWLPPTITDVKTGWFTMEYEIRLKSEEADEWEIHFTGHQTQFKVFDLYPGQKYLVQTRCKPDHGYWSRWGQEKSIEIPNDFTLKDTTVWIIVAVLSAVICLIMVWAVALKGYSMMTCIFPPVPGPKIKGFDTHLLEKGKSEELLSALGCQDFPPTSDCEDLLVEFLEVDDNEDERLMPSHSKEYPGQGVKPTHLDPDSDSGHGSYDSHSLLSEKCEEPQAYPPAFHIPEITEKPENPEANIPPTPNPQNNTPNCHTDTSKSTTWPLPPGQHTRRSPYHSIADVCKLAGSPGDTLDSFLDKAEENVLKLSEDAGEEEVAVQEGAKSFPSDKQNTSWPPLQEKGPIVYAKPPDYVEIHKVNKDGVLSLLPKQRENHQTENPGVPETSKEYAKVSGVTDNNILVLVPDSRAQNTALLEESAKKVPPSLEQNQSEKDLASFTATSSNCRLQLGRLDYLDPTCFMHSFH
Experimental: (§3) The ability of anti-PRLR antibodies to selectively bind PRLR expressing cell lines was next determined. Human, monkey Macaca fascicularis, and mouse PRLR constructs with an HA tag were stably introduced into HEK293 cells via Lipofectamine 2000-mediated transfection methodology. Transfectants (HEK293/hPRLR, HEK293/mfPRLR and HEK293/mPRLR) were selected for at least 2 weeks in complete growth media plus G418.
as §1, §2

[3] = target: T3, human PRLR on HEK293/hPRLR cells (Homo sapiens, UniProt P16471); test: FACS cell surface binding
T3 construct: HA; expressed in transfected cells; host or cells: HEK293
T3 sequence (P16471 25-622): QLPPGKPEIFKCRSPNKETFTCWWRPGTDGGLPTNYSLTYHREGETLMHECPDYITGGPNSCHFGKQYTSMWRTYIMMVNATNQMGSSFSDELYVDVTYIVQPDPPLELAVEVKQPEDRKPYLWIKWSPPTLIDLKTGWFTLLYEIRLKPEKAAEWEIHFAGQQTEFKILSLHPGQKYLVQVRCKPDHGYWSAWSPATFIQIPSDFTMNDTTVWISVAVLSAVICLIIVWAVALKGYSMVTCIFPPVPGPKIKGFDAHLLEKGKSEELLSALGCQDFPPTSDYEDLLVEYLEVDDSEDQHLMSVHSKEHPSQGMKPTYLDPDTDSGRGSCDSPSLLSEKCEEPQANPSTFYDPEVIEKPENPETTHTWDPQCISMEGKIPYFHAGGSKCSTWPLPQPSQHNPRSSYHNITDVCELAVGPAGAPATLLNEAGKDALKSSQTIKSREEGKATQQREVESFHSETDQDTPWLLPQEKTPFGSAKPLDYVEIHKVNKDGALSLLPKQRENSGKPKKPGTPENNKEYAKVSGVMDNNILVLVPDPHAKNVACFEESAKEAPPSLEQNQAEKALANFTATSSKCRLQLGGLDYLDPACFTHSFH
Experimental: as §3, §1, §2

[4] = target: T4, monkey PRLR on HEK293/mfPRLR cells (Macaca fascicularis, UniProt A0A2K5WXK1); test: FACS cell surface binding
T4 construct: HA; expressed in transfected cells; host or cells: HEK293
T4 sequence (A0A2K5WXK1 25-619): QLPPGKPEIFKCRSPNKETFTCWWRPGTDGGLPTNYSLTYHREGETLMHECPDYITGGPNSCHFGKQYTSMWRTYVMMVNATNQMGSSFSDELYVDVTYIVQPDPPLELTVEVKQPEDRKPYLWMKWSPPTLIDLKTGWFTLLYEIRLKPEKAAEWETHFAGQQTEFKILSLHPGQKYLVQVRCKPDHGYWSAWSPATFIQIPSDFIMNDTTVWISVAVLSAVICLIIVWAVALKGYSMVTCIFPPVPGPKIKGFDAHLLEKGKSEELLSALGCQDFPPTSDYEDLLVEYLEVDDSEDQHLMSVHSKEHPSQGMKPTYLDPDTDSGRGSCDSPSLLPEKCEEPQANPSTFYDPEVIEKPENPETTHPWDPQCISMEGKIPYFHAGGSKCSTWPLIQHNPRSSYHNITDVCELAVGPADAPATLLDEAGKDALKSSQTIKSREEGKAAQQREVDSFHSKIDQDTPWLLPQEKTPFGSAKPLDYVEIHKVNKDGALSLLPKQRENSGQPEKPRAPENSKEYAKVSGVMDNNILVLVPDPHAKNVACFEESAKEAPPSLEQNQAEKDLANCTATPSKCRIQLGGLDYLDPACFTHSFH
Experimental: as §3, §1, §2

[5] = target: T5, monomeric human PRLR (hPRLR.mmh; SEQ ID NO:401) (Homo sapiens, UniProt P16471); test: Surface plasmon resonance (Biacore T200), antibody-capture format; format: binding; settings: analyte hPRLR.mmh
T5 construct: soluble monomeric (hPRLR.mmh); mmh (myc-myc-hexahistidine) (C)
Experimental: (§4) Antibodies, expressed as human IgG1 Fc (i.e., “H1H” designations), were captured onto an anti-human Fc sensor surface (mAb-capture format), and soluble monomeric (hPRLR.mmh; SEQ ID NO:401, or Macaca fascicularis (mf) PRLR.mmh; SEQ ID NO:403) or dimeric (hPRLR.mFc; SEQ ID NO:402) PRLR protein was injected over the sensor surface. Measurements were conducted on a T200 Biacore instrument. Kinetic association (ka) and dissociation (kd) rate constants were determined by processing and fitting the data to a 1:1 binding model using Scrubber 2.0 curve fitting software.

[6] = target: T6, dimeric human PRLR (hPRLR.mFc; SEQ ID NO:402) (Homo sapiens, UniProt P16471); test: as above; format: binding; settings: analyte hPRLR.mFc
T6 construct: dimeric (hPRLR.mFc)
Experimental: as §4

[7] = tested on: Macaca fascicularis PRLR (mfPRLR.mmh; SEQ ID NO:403); test: as above; format: binding; settings: analyte mfPRLR.mmh
Experimental: as §4

HEK293 parental cells = test: FACS cell surface binding; set-up: species or system human
Experimental: as §3, §1, §2

T5 sequence (P16471 with tags, fused parts or gaps): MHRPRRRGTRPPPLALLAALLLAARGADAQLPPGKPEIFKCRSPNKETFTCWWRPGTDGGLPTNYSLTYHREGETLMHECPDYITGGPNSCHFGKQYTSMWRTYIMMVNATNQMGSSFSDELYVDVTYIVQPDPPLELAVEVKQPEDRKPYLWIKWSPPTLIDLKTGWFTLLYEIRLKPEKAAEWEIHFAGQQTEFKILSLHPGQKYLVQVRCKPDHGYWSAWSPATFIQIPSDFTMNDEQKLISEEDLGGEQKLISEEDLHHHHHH
Macaca fascicularis PRLR (mfPRLR.mmh; SEQ ID NO:403), sequence (as listed by the source): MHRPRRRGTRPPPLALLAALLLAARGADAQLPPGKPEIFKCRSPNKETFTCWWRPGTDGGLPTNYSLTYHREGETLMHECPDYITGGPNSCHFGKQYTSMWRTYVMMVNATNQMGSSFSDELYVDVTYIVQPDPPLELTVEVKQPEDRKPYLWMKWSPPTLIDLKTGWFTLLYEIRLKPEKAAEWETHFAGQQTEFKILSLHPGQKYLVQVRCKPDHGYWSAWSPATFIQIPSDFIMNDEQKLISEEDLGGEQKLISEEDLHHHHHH
T6 sequence (P16471 with tags, fused parts or gaps): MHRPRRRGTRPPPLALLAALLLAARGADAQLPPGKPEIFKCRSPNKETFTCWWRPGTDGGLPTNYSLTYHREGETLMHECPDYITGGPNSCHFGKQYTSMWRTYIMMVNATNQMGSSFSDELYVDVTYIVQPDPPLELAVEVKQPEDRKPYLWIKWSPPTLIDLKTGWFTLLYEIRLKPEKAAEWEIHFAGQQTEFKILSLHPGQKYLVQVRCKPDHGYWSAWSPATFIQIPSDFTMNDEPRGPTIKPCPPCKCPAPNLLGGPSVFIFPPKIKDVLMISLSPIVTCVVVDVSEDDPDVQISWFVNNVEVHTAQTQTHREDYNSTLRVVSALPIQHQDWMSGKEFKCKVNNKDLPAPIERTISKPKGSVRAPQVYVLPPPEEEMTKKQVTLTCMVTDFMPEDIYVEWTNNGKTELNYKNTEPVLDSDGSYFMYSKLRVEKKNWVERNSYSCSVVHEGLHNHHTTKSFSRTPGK

Molecule	FACS Cell Binding [1] [Fold Above Background]	FACS Cell Binding [2] [Fold Above Background]	FACS Cell Binding [3] [Fold Above Background]	FACS Cell Binding [4] [Fold Above Background]	ka ([5]; 25° C.) [M/s]	kd ([5]; 25° C.) [s⁻¹]	ka ([5]; 37° C.) [M/s]	kd ([5]; 37° C.) [s⁻¹]	ka ([6]; 25° C.) [M/s]	kd ([6]; 25° C.) [s⁻¹]	ka ([6]; 37° C.) [M/s]	kd ([6]; 37° C.) [s⁻¹]	ka ([7]; 25° C.) [M/s]	kd ([7]; 25° C.) [s⁻¹]	ka ([7]; 37° C.) [M/s]	kd ([7]; 37° C.) [s⁻¹]	FACS Cell Binding (HEK293 parental cells) [Fold Above Background]
B1	33	1	29	23	108000	0.000729	122000	0.00198	252000	3.56e-05	294000	0.000147	94000	0.000583	86400	0.00128	1
B2	9	2	6	11	179000	0.036	40600	0.0277	359000	0.000518	509000	0.0023	129000	0.0167	44600	0.0165	1
B3	31	1	29	18	852000	0.000257	1.58e+06	0.00096	931000	4.08e-05	1.88e+06	0.000127	782000	0.000325	1.22e+06	0.0012	1
B4	41	2	38	28	246000	0.000332	424000	0.000933	407000	4.45e-05	907000	9.73e-05	190000	0.000585	356000	0.00162	1
